Laboratory results from the supplement of paper PMC10724198.
± gives the standard deviation of the averaged measurements.

Legend:
[1] = tested on: Saccharomyces cerevisiae; experiment: protein stability index of tFT-peptide fusion (C-terminal peptide) (PSI (0-1 scale)); higher = more stable (slower turnover); details: genetic background: wild type; temperature: 30 C
[2] = tested on: Saccharomyces cerevisiae; experiment: as above
Description: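 MPS profiling in S. cerevisiae of the tFT-X12 degron library: putative degron peptides plus stable controls, 12 aa, fused to the C-terminus of a sfGFP-mCherry timer. Cells are FACS-sorted into 8 mCherry/sfGFP bins and deep-sequenced. PSI runs from 0 (unstable) to 1 (stable). Backgrounds are wild type, das1Δ and doa10Δ at 30 °C, and wild type, das1Δ, cdc34-1 and cdc53-1 at 37 °C; 2-3 technical replicates each.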

[3] = genetic background: cdc34-1, temperature: 37 C
[4] = genetic background: cdc53-1, temperature: 37 C
[5] = genetic background: das1 deletion, temperature: 30 C
[6] = genetic background: das1 deletion, temperature: 37 C
[7] = genetic background: doa10 deletion, temperature: 30 C
[8] = genetic background: wild type, temperature: 30 C
[9] = genetic background: wild type, temperature: 37 C
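Also: PSI is a weighted mean of sequencing reads over stability bins, variants kept only with over 10 reads, mCherry proximal and sfGFP distal, peptide attached via GGGS linker.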

NASWAFLCYFCV
protein stability index [1]: 0.481 ± 0.028 | protein stability index [2, 3]: 0.646 ± 0.03 | protein stability index [2, 4]: 0.69 ± 0.013 | protein stability index [2, 5]: 0.538 ± 0.018 | protein stability index [2, 6]: 0.68493 ± 0.0006 | protein stability index [2, 7]: 0.347 ± 0.018 | protein stability index [2, 8]: 0.374 ± 0.022 | protein stability index [2, 9]: 0.557 ± 0.04

PRRVTVPGVPPL
protein stability index [1]: 0.71 ± 0.014 | protein stability index [2, 3]: 0.672 ± 0.018 | protein stability index [2, 4]: 0.736 ± 0.033 | protein stability index [2, 5]: 0.669 ± 0.035 | protein stability index [2, 6]: 0.737 ± 0.014 | protein stability index [2, 7]: 0.643 ± 0.01 | protein stability index [2, 8]: 0.66 ± 0.01 | protein stability index [2, 9]: 0.7039 ± 0.0025

VCIPLLVIRFLV
protein stability index [1]: 0.109 ± 0.0095 | protein stability index [2, 3]: 0.098 ± 0.013 | protein stability index [2, 4]: 0.182 ± 0.014 | protein stability index [2, 5]: 0.234 ± 0.022 | protein stability index [2, 6]: 0.386 ± 0.029 | protein stability index [2, 7]: 0.0616 ± 0.019 | protein stability index [2, 8]: 0.0599 ± 0.014 | protein stability index [2, 9]: 0.0485 ± 0.00051

LMIVSVRLLFFL
protein stability index [1]: 0.2661 ± 0.002 | protein stability index [2, 3]: 0.229 ± 0.049 | protein stability index [2, 4]: 0.39 ± 0.0024 | protein stability index [2, 5]: 0.232 ± 0.029 | protein stability index [2, 6]: 0.419 ± 0.015 | protein stability index [2, 7]: 0.1617 ± 0.00049 | protein stability index [2, 8]: 0.172 ± 0.019 | protein stability index [2, 9]: 0.282 ± 0.014

VVVLLLVVWFCL
protein stability index [1]: 0.379 ± 0.04 | protein stability index [2, 3]: 0.29 ± 0.014 | protein stability index [2, 4]: 0.4134 ± 0.0018 | protein stability index [2, 5]: 0.316 ± 0.027 | protein stability index [2, 6]: 0.428 ± 0.027 | protein stability index [2, 7]: 0.283 ± 0.0079 | protein stability index [2, 8]: 0.296 ± 0.025 | protein stability index [2, 9]: 0.391 ± 0.019

FCCLVLDLEVSG
protein stability index [1]: 0.424 ± 0.0079 | protein stability index [2, 3]: 0.4314 ± 0.0037 | protein stability index [2, 4]: 0.548 ± 0.019 | protein stability index [2, 5]: 0.36 ± 0.032 | protein stability index [2, 6]: 0.5627 ± 0.0037 | protein stability index [2, 7]: 0.331 ± 0.0069 | protein stability index [2, 8]: 0.372 ± 0.016 | protein stability index [2, 9]: 0.541 ± 0.0084

FRHKLSLGLVIV
protein stability index [1]: 0.507 ± 0.011 | protein stability index [2, 3]: 0.54 ± 0.037 | protein stability index [2, 4]: 0.555 ± 0.073 | protein stability index [2, 5]: 0.396 ± 0.029 | protein stability index [2, 6]: 0.56 ± 0.0072 | protein stability index [2, 7]: 0.347 ± 0.012 | protein stability index [2, 8]: 0.377 ± 0.028 | protein stability index [2, 9]: 0.534 ± 0.014

FFVSFFFFLWLV
protein stability index [1]: 0.228 ± 0.0027 | protein stability index [2, 3]: 0.204 ± 0.011 | protein stability index [2, 4]: 0.181 ± 0.024 | protein stability index [2, 5]: 0.204 ± 0.011 | protein stability index [2, 6]: 0.261 ± 0.014 | protein stability index [2, 7]: 0.278 ± 0.038 | protein stability index [2, 8]: 0.161 ± 0.018 | protein stability index [2, 9]: 0.189 ± 0.015

LLLPVFLVFSVS
protein stability index [1]: 0.326 ± 0.034 | protein stability index [2, 3]: 0.295 ± 0.046 | protein stability index [2, 4]: 0.417 ± 0.005 | protein stability index [2, 5]: 0.269 ± 0.037 | protein stability index [2, 6]: 0.482 ± 0.012 | protein stability index [2, 7]: 0.2258 ± 0.0016 | protein stability index [2, 8]: 0.256 ± 0.03 | protein stability index [2, 9]: 0.47 ± 0.058

RIRRVMHLYTNN
protein stability index [1]: 0.121 ± 0.0048 | protein stability index [2, 3]: 0.475 ± 0.027 | protein stability index [2, 4]: 0.705 ± 0.071 | protein stability index [2, 5]: 0.641 ± 0.027 | protein stability index [2, 6]: 0.708 ± 0.024 | protein stability index [2, 7]: 0.0717 ± 0.0049 | protein stability index [2, 8]: 0.0844 ± 0.012 | protein stability index [2, 9]: 0.109 ± 0.044

KRKKHKRKLVIC
protein stability index [1]: 0.265 ± 0.043 | protein stability index [2, 3]: 0.611 ± 0.03 | protein stability index [2, 4]: 0.674 ± 0.025 | protein stability index [2, 5]: 0.612 ± 0.012 | protein stability index [2, 6]: 0.732 ± 0.012 | protein stability index [2, 7]: 0.14 ± 0.027 | protein stability index [2, 8]: 0.154 ± 0.045 | protein stability index [2, 9]: 0.148 ± 0.05

VRRGAVWCCLCG
protein stability index [1]: 0.474 ± 0.011 | protein stability index [2, 3]: 0.666 ± 0.0079 | protein stability index [2, 4]: 0.73 ± 0.0094 | protein stability index [2, 5]: 0.623 ± 0.012 | protein stability index [2, 6]: 0.748 ± 0.004 | protein stability index [2, 7]: 0.368 ± 0.017 | protein stability index [2, 8]: 0.405 ± 0.014 | protein stability index [2, 9]: 0.633 ± 0.0059

WSLRFRRMMLRC
protein stability index [1]: 0.283 ± 0.015 | protein stability index [2, 3]: 0.3765 ± 0.00088 | protein stability index [2, 4]: 0.425 ± 0.0072 | protein stability index [2, 5]: 0.429 ± 0.028 | protein stability index [2, 6]: 0.534 ± 0.0069 | protein stability index [2, 7]: 0.137 ± 0.0015 | protein stability index [2, 8]: 0.127 ± 0.026 | protein stability index [2, 9]: 0.16 ± 0.024

RVCCLSFFFVFL
protein stability index [1]: 0.517 ± 0.024 | protein stability index [2, 3]: 0.445 ± 0.022 | protein stability index [2, 4]: 0.581 ± 0.054 | protein stability index [2, 5]: 0.398 ± 0.036 | protein stability index [2, 6]: 0.581 ± 0.014 | protein stability index [2, 7]: 0.427 ± 0.0094 | protein stability index [2, 8]: 0.391 ± 0.0052 | protein stability index [2, 9]: 0.551 ± 0.027

VLVRVIYLLVSG
protein stability index [1]: 0.347 ± 0.02 | protein stability index [2, 3]: 0.276 ± 0.007 | protein stability index [2, 4]: 0.373 ± 0.013 | protein stability index [2, 5]: 0.23 ± 0.038 | protein stability index [2, 6]: 0.469 ± 0.0053 | protein stability index [2, 7]: 0.178 ± 0.026 | protein stability index [2, 8]: 0.234 ± 0.029 | protein stability index [2, 9]: 0.404 ± 0.017

RVPCCLSFVPVC
protein stability index [1]: 0.452 ± 0.033 | protein stability index [2, 3]: 0.508 ± 0.032 | protein stability index [2, 4]: 0.5131 ± 0.004 | protein stability index [2, 5]: 0.394 ± 0.026 | protein stability index [2, 6]: 0.5682 ± 0.0047 | protein stability index [2, 7]: 0.363 ± 0.0097 | protein stability index [2, 8]: 0.405 ± 0.027 | protein stability index [2, 9]: 0.5362 ± 0.0037

VGLWFLCSLAFS
protein stability index [1]: 0.401 ± 0.006 | protein stability index [2, 3]: 0.444 ± 0.0079 | protein stability index [2, 4]: 0.478 ± 0.015 | protein stability index [2, 5]: 0.34 ± 0.037 | protein stability index [2, 6]: 0.5344 ± 0.0014 | protein stability index [2, 7]: 0.308 ± 0.015 | protein stability index [2, 8]: 0.346 ± 0.023 | protein stability index [2, 9]: 0.495 ± 0.007

GACRVSSCVVVC
protein stability index [1]: 0.4477 ± 0.0044 | protein stability index [2, 3]: 0.504 ± 0.011 | protein stability index [2, 4]: 0.548 ± 0.024 | protein stability index [2, 5]: 0.37 ± 0.032 | protein stability index [2, 6]: 0.571 ± 0.0072 | protein stability index [2, 7]: 0.316 ± 0.006 | protein stability index [2, 8]: 0.358 ± 0.014 | protein stability index [2, 9]: 0.526 ± 0.0059
